Measurements published in patent publication US20220194983A1 (Bicycle, published 2022).
Numbered stars: 1 amine (or outer) side, 2 acyl side, 3 side chain; on linkers, the order of the positions; unused ones are H or OH. Bridge positions count the residues as written; N and C are the ends. Square brackets hold non-standard residues; d marks the D form. Ends that are not written are not given here. TBMB = c1c(C[*:1])cc(C[*:3])cc1C[*:2]; Dap(Me) = CNC[C@H](N)C(=O)O

What was measured:
[1] = target: T1, prostate-specific membrane antigen (PSMA) (human, UniProt Q04609 44-750, limits assumed); assay: fluorescence polarization, FP (h)
T1 construct: also called Glutamate carboxypeptidase II; GCPII
T1 sequence (Q04609 44-750 limits assumed): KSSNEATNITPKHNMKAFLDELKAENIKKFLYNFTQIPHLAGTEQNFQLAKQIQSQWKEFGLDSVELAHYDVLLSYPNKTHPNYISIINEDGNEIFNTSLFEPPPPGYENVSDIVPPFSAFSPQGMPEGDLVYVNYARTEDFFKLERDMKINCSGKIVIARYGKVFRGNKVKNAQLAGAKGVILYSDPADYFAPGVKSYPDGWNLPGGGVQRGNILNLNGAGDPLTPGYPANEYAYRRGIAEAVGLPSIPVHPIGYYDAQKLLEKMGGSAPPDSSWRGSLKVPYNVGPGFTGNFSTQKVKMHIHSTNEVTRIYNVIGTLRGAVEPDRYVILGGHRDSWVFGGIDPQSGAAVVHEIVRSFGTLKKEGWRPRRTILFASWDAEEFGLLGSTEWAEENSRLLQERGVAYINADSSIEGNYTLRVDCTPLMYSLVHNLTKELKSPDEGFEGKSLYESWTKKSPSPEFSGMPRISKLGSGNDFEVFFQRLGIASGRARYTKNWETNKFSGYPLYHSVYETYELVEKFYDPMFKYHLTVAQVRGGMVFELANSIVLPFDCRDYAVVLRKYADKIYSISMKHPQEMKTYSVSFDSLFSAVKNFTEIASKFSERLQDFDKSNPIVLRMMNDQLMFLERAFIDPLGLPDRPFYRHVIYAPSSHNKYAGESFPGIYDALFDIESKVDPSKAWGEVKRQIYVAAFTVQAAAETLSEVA

[2] = target: T1, prostate-specific membrane antigen …; assay: fluorescence polarization binding assay
Experimental: PSMA binding was measured using the fluorescence polarization assay methodology described in Shen et al (2013) PLOS ONE 8(7), e68339 and PSMA enzyme inhibition was measured using the methodology described in WO 2009/070302.

[3] = target: T1, prostate-specific membrane antigen …; assay: cell-based or functional assay

Ki [1]	Ki [2]	Enzyme inhibition IC50 [3]	Binder
30 nM			EVCWDCFMMEDGTCAXXXXXXK (N-terminal acetyl; D-Glu at 1; Cys 3, 6 and 14 joined by thioether linkages to TBMB scaffold; X16-X21 = Sar; D-Lys at 22) [21-31-04-T01-N007]
	3 nM		EVCWDCFMMEDGTCA (linker 3-6-14 via TBMB, Bicyclic peptide on TBMB scaffold, all thioether) [21-31-04-T01-N001]
	700 nM		EVCWD[Dap(Me)]FMMEDGT[Dap(Me)]A (linker 3-6-14 via TBMB, Bicyclic peptide on TBMB scaffold) [21-31-04-T01-N017]

Second part, the binder before the results:

Binder	Ki [1]	Ki [2]	Enzyme inhibition IC50 [3]
FCSECYMMEDGTCA (linker 2-5-13 via TBMB) [21-31-11-T01-N001]	6 nM		
CIECYIMEDGTCA (linker 1-4-12 via TBMB) [21-31-01-N001]	70 nM		
ACMVCHMMEDGTCA (linker 2-5-13 via TBMB) [21-31-N002]	40 nM		695 nM
